Biological target: the molecule itself
Test: negative-stain TEM + turbidity + circular dichroism + rheology; Z23 alone (no MWCNTs) in PBS, assembly triggered by adding 10x PBS to the aqueous peptide solution; room temperature (rheology 1 wt% in PBS at 25 °C); turbidity at 313 nm

B1: cationic amphiphilic self-assembling peptide (SAP) Z23 (peptide)
peptide: Ac-KFKFQFKFK-NH2
notes: Designed self-assembling peptide; forms nanofibers and a hydrogel in PBS; source: synthetic peptide; bought: Shanghai Top-peptide Biotechnology Co. Ltd. (purity > 95%)
binding result: binds

From article PMC10934782, “Electrochemical Sensors Based on Self-Assembling Peptide/Carbon Nanotube Nanocomposites for Sensitive Detection of Bisphenol A” (Sensors (Basel, Switzerland), 2024)
